Reference: US20260001928A1 (CORTERIA PHARMACEUTICALS, priority 2022, published 2026)
*1 amine or outer side, *2 acyl side, *3 side chain or, on linkers, in order; H or OH if unused. Side-chain parts run from the residue outwards. [ ]: non-standard residue; d: D form. The star is where a group is joined. C20 diacid = O=C(O)CCCCCCCCCCCCCCCCCCC(=O)*; C18 diacid = O=C(O)CCCCCCCCCCCCCCCCC(=O)*; C16 diacid = O=C(O)CCCCCCCCCCCCCCC(=O)*; γGlu = O=C(O)[C@H](CCC(=O)[*:2])N[*:1]; Pentanoyl = CCCCC(=O)*; AEEA = NCCOCCOCC(=O)O; Aib = CC(C)(N)C(=O)O; Butyryl = CCCC(=O)*

T1: CRF1R receptor (UniProt P34998 24-415, limits assumed)
T1 sequence (looked up): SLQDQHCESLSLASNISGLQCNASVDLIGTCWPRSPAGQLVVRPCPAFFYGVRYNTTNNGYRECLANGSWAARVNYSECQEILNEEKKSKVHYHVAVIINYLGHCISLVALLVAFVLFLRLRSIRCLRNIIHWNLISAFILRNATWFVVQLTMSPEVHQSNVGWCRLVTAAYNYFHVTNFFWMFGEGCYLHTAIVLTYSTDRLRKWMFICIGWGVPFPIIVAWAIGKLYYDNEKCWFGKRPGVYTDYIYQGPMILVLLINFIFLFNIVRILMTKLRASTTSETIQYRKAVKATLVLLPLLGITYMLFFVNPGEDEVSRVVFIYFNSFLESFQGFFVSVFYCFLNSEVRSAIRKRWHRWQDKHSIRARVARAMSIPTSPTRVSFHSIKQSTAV


Key:
[1] = target: T1, CRF1R receptor; experiment: cell-based or functional assay
[2] = target: human corticotropin-releasing factor 2a (CRF2a receptor) (human), Q13324; experiment: cell-based or functional assay
Sequence of human corticotropin-releasing factor 2a (CRF2a receptor) (human), Q13324 (Q13324 20-411): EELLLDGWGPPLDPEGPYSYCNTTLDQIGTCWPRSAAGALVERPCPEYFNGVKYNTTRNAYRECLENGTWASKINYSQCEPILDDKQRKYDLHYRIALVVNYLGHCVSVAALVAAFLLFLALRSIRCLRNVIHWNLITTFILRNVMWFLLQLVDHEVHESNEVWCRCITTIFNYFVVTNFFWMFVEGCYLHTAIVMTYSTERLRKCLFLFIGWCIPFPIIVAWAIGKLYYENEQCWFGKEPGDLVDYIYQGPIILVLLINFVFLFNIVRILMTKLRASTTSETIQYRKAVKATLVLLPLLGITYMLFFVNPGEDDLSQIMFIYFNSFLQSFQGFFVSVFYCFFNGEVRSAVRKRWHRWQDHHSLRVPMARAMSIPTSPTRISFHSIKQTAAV

Emax (% I) [1] [%]	EC50 [nM] (cAMP) [2]	EC50 [1] [nM]	Binder
8	1.73		Pentanoyl-VLSLD[dV]PIKLK([AEEA-AEEA-γGlu-C18 diacid])KILLEQEKQK[Aib]QREQAETN[Aib]QILAQV-NH2 (SMILES CCCCC(=O)N[C@H](C(=O)N[C@@H](CC(C)C)C(=O)N[C@@H](CO)C(=O)N[C@@H](CC(C)C)C(=O)N[C@@H](CC(=O)O)C(=O)N[C@@H](C(=O)N1CCC[C@H]1C(=O)N[C@H](C(=O)N[C@@H](CCCCN)C(=O)N[C@@H](CC(C)C)C(=O)N[C@@H](CCCCNC(=O)COCCOCCNC(=O)COCCOCCNC(=O)CC[C@H](NC(=O)CCCCCCCCCCCCCCCCC(=O)O)C(=O)O)C(=O)N[C@@H](CCCCN)C(=O)N[C@H](C(=O)N[C@@H](CC(C)C)C(=O)N[C@@H](CC(C)C)C(=O)N[C@@H](CCC(=O)O)C(=O)N[C@@H](CCC(N)=O)C(=O)N[C@@H](CCC(=O)O)C(=O)N[C@@H](CCCCN)C(=O)N[C@@H](CCC(N)=O)C(=O)N[C@@H](CCCCN)C(=O)NC(C)(C)C(=O)N[C@@H](CCC(N)=O)C(=O)N[C@@H](CCCNC(=N)N)C(=O)N[C@@H](CCC(=O)O)C(=O)N[C@@H](CCC(N)=O)C(=O)N[C@@H](C)C(=O)N[C@@H](CCC(=O)O)C(=O)N[C@H](C(=O)N[C@@H](CC(N)=O)C(=O)NC(C)(C)C(=O)N[C@@H](CCC(N)=O)C(=O)N[C@H](C(=O)N[C@@H](CC(C)C)C(=O)N[C@@H](C)C(=O)N[C@@H](CCC(N)=O)C(=O)N[C@H](C(N)=O)C(C)C)[C@@H](C)CC)[C@@H](C)O)[C@@H](C)CC)[C@@H](C)CC)C(C)C)C(C)C) [SEQ ID NO 202]
3	0.43		Ac-IVLSLD[dV]PIKLK([AEEA-γGlu-C18 diacid])KILLEQEKQKKQREQAETN[Aib]QILAQV-NH2 (SMILES CC[C@H](C)[C@H](NC(C)=O)C(=O)N[C@H](C(=O)N[C@@H](CC(C)C)C(=O)N[C@@H](CO)C(=O)N[C@@H](CC(C)C)C(=O)N[C@@H](CC(=O)O)C(=O)N[C@@H](C(=O)N1CCC[C@H]1C(=O)N[C@H](C(=O)N[C@@H](CCCCN)C(=O)N[C@@H](CC(C)C)C(=O)N[C@@H](CCCCNC(=O)COCCOCCNC(=O)CC[C@H](NC(=O)CCCCCCCCCCCCCCCCC(=O)O)C(=O)O)C(=O)N[C@@H](CCCCN)C(=O)N[C@H](C(=O)N[C@@H](CC(C)C)C(=O)N[C@@H](CC(C)C)C(=O)N[C@@H](CCC(=O)O)C(=O)N[C@@H](CCC(N)=O)C(=O)N[C@@H](CCC(=O)O)C(=O)N[C@@H](CCCCN)C(=O)N[C@@H](CCC(N)=O)C(=O)N[C@@H](CCCCN)C(=O)N[C@@H](CCCCN)C(=O)N[C@@H](CCC(N)=O)C(=O)N[C@@H](CCCNC(=N)N)C(=O)N[C@@H](CCC(=O)O)C(=O)N[C@@H](CCC(N)=O)C(=O)N[C@@H](C)C(=O)N[C@@H](CCC(=O)O)C(=O)N[C@H](C(=O)N[C@@H](CC(N)=O)C(=O)NC(C)(C)C(=O)N[C@@H](CCC(N)=O)C(=O)N[C@H](C(=O)N[C@@H](CC(C)C)C(=O)N[C@@H](C)C(=O)N[C@@H](CCC(N)=O)C(=O)N[C@H](C(N)=O)C(C)C)[C@@H](C)CC)[C@@H](C)O)[C@@H](C)CC)[C@@H](C)CC)C(C)C)C(C)C) [SEQ ID NO 203]
59	0.06	101	Butyryl-VLSLD[dV]PIKLK([γGlu-C16 diacid])QILLKQERQKKQREQAEKNKQILEQV-NH2 (SMILES CCCC(=O)N[C@H](C(=O)N[C@@H](CC(C)C)C(=O)N[C@@H](CO)C(=O)N[C@@H](CC(C)C)C(=O)N[C@@H](CC(=O)O)C(=O)N[C@@H](C(=O)N1CCC[C@H]1C(=O)N[C@H](C(=O)N[C@@H](CCCCN)C(=O)N[C@@H](CC(C)C)C(=O)N[C@@H](CCCCNC(=O)CC[C@H](NC(=O)CCCCCCCCCCCCCCC(=O)O)C(=O)O)C(=O)N[C@@H](CCC(N)=O)C(=O)N[C@H](C(=O)N[C@@H](CC(C)C)C(=O)N[C@@H](CC(C)C)C(=O)N[C@@H](CCCCN)C(=O)N[C@@H](CCC(N)=O)C(=O)N[C@@H](CCC(=O)O)C(=O)N[C@@H](CCCNC(=N)N)C(=O)N[C@@H](CCC(N)=O)C(=O)N[C@@H](CCCCN)C(=O)N[C@@H](CCCCN)C(=O)N[C@@H](CCC(N)=O)C(=O)N[C@@H](CCCNC(=N)N)C(=O)N[C@@H](CCC(=O)O)C(=O)N[C@@H](CCC(N)=O)C(=O)N[C@@H](C)C(=O)N[C@@H](CCC(=O)O)C(=O)N[C@@H](CCCCN)C(=O)N[C@@H](CC(N)=O)C(=O)N[C@@H](CCCCN)C(=O)N[C@@H](CCC(N)=O)C(=O)N[C@H](C(=O)N[C@@H](CC(C)C)C(=O)N[C@@H](CCC(=O)O)C(=O)N[C@@H](CCC(N)=O)C(=O)N[C@H](C(N)=O)C(C)C)[C@@H](C)CC)[C@@H](C)CC)[C@@H](C)CC)C(C)C)C(C)C) [SEQ ID NO 7]
-2	1.84		Ac-IVLSLD[dV]PIKLK([AEEA-AEEA-γGlu-γGlu-C18 diacid])KILLEQEKQKKQREQAETN[Aib]QILAQV-NH2 (SMILES CC[C@H](C)[C@H](NC(C)=O)C(=O)N[C@H](C(=O)N[C@@H](CC(C)C)C(=O)N[C@@H](CO)C(=O)N[C@@H](CC(C)C)C(=O)N[C@@H](CC(=O)O)C(=O)N[C@@H](C(=O)N1CCC[C@H]1C(=O)N[C@H](C(=O)N[C@@H](CCCCN)C(=O)N[C@@H](CC(C)C)C(=O)N[C@@H](CCCCNC(=O)COCCOCCNC(=O)COCCOCCNC(=O)CC[C@H](NC(=O)CC[C@H](NC(=O)CCCCCCCCCCCCCCCCC(=O)O)C(=O)O)C(=O)O)C(=O)N[C@@H](CCCCN)C(=O)N[C@H](C(=O)N[C@@H](CC(C)C)C(=O)N[C@@H](CC(C)C)C(=O)N[C@@H](CCC(=O)O)C(=O)N[C@@H](CCC(N)=O)C(=O)N[C@@H](CCC(=O)O)C(=O)N[C@@H](CCCCN)C(=O)N[C@@H](CCC(N)=O)C(=O)N[C@@H](CCCCN)C(=O)N[C@@H](CCCCN)C(=O)N[C@@H](CCC(N)=O)C(=O)N[C@@H](CCCNC(=N)N)C(=O)N[C@@H](CCC(=O)O)C(=O)N[C@@H](CCC(N)=O)C(=O)N[C@@H](C)C(=O)N[C@@H](CCC(=O)O)C(=O)N[C@H](C(=O)N[C@@H](CC(N)=O)C(=O)NC(C)(C)C(=O)N[C@@H](CCC(N)=O)C(=O)N[C@H](C(=O)N[C@@H](CC(C)C)C(=O)N[C@@H](C)C(=O)N[C@@H](CCC(N)=O)C(=O)N[C@H](C(N)=O)C(C)C)[C@@H](C)CC)[C@@H](C)O)[C@@H](C)CC)[C@@H](C)CC)C(C)C)C(C)C) [SEQ ID NO 204]
1	1.43		Ac-IVLSLD[dV]PIKLK([AEEA-γGlu-γGlu-C18 diacid])KILLEQEKQKKQREQAETN[Aib]QILAQV-NH2 (SMILES CC[C@H](C)[C@H](NC(C)=O)C(=O)N[C@H](C(=O)N[C@@H](CC(C)C)C(=O)N[C@@H](CO)C(=O)N[C@@H](CC(C)C)C(=O)N[C@@H](CC(=O)O)C(=O)N[C@@H](C(=O)N1CCC[C@H]1C(=O)N[C@H](C(=O)N[C@@H](CCCCN)C(=O)N[C@@H](CC(C)C)C(=O)N[C@@H](CCCCNC(=O)COCCOCCNC(=O)CC[C@H](NC(=O)CC[C@H](NC(=O)CCCCCCCCCCCCCCCCC(=O)O)C(=O)O)C(=O)O)C(=O)N[C@@H](CCCCN)C(=O)N[C@H](C(=O)N[C@@H](CC(C)C)C(=O)N[C@@H](CC(C)C)C(=O)N[C@@H](CCC(=O)O)C(=O)N[C@@H](CCC(N)=O)C(=O)N[C@@H](CCC(=O)O)C(=O)N[C@@H](CCCCN)C(=O)N[C@@H](CCC(N)=O)C(=O)N[C@@H](CCCCN)C(=O)N[C@@H](CCCCN)C(=O)N[C@@H](CCC(N)=O)C(=O)N[C@@H](CCCNC(=N)N)C(=O)N[C@@H](CCC(=O)O)C(=O)N[C@@H](CCC(N)=O)C(=O)N[C@@H](C)C(=O)N[C@@H](CCC(=O)O)C(=O)N[C@H](C(=O)N[C@@H](CC(N)=O)C(=O)NC(C)(C)C(=O)N[C@@H](CCC(N)=O)C(=O)N[C@H](C(=O)N[C@@H](CC(C)C)C(=O)N[C@@H](C)C(=O)N[C@@H](CCC(N)=O)C(=O)N[C@H](C(N)=O)C(C)C)[C@@H](C)CC)[C@@H](C)O)[C@@H](C)CC)[C@@H](C)CC)C(C)C)C(C)C) [SEQ ID NO 205]
42	0.11	224	Ac-IVLSLD[dV]PIKLK([γGlu-C20 diacid])KILLEQEKQKKQREQAETN[Aib]QILAQV-NH2 (SMILES CC[C@H](C)[C@H](NC(C)=O)C(=O)N[C@H](C(=O)N[C@@H](CC(C)C)C(=O)N[C@@H](CO)C(=O)N[C@@H](CC(C)C)C(=O)N[C@@H](CC(=O)O)C(=O)N[C@@H](C(=O)N1CCC[C@H]1C(=O)N[C@H](C(=O)N[C@@H](CCCCN)C(=O)N[C@@H](CC(C)C)C(=O)N[C@@H](CCCCNC(=O)CC[C@H](NC(=O)CCCCCCCCCCCCCCCCCCC(=O)O)C(=O)O)C(=O)N[C@@H](CCCCN)C(=O)N[C@H](C(=O)N[C@@H](CC(C)C)C(=O)N[C@@H](CC(C)C)C(=O)N[C@@H](CCC(=O)O)C(=O)N[C@@H](CCC(N)=O)C(=O)N[C@@H](CCC(=O)O)C(=O)N[C@@H](CCCCN)C(=O)N[C@@H](CCC(N)=O)C(=O)N[C@@H](CCCCN)C(=O)N[C@@H](CCCCN)C(=O)N[C@@H](CCC(N)=O)C(=O)N[C@@H](CCCNC(=N)N)C(=O)N[C@@H](CCC(=O)O)C(=O)N[C@@H](CCC(N)=O)C(=O)N[C@@H](C)C(=O)N[C@@H](CCC(=O)O)C(=O)N[C@H](C(=O)N[C@@H](CC(N)=O)C(=O)NC(C)(C)C(=O)N[C@@H](CCC(N)=O)C(=O)N[C@H](C(=O)N[C@@H](CC(C)C)C(=O)N[C@@H](C)C(=O)N[C@@H](CCC(N)=O)C(=O)N[C@H](C(N)=O)C(C)C)[C@@H](C)CC)[C@@H](C)O)[C@@H](C)CC)[C@@H](C)CC)C(C)C)C(C)C) [SEQ ID NO 206]
